Common to all, as to assay: resonant mirror detection
In experiment [1] the target is GST-NHE1cd mutant M1 (K513KKQETKR→AAAQETAA) (rat (Rattus norvegicus)).
Experiment [2] addresses GST-NHE1cd mutant M2 (R556FNKKYVKK→…) (rat (Rattus norvegicus)).
For experiment [3], the target named is recombinant human calmodulin with four extra N-terminal amino acids Gly-Ser-His-Met (human).
Experiment [4] deals with GST-NHE1cd mutant M3 (K513KK→AAA) (rat (Rattus norvegicus)).

What is called Kd is the equilibrium constant for the complex coming apart. A word on the kon: it is the second-order rate constant of association. Higher therefore signals fast association. On to “exon 5-encoded human 4.1R^80 polypeptide (GST fusion) (domain or fragment)”, for which, in experiment [1], the Kd is 4790 nM and the kon was 250 M⁻¹ s⁻¹. In experiment [2], the Kd stood at 26100 nM and the kon is 240 M⁻¹ s⁻¹.
The koff is the rate constant with which the complex falls apart. A high value points to a short-lived complex. As to “recombinant 4.1R FERM domain (from UniProt P11171 210-488) (domain or fragment)”, in experiment [3], the equilibrium dissociation constant (Kd) was found to be 100 nM. In experiment [4], this substance came in with a Kd of 545 nM, a koff of 0.065 s⁻¹ and a kon of 120000 M⁻¹ s⁻¹.

The record behind these values is article PMC4338608.
